According to US6051217, “Therapeutic uses of interleukin-3 (IL-3) multiple mutation polypeptides” (G. D. Searle & Co., dated 2000):

T1: hIL-3 receptor (human, UniProt P26951)
T1 sequence: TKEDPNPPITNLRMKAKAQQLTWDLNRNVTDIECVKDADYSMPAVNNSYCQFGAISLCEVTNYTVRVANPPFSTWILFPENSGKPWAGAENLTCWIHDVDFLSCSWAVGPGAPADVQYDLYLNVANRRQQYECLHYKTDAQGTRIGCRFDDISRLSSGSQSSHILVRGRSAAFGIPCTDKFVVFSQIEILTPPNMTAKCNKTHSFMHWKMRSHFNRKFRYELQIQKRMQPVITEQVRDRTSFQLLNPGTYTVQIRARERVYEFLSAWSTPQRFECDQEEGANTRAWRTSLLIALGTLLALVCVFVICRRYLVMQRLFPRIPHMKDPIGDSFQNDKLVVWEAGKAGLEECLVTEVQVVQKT


Molecular target: T1, hIL-3 receptor
Assay: cell-based or functional assay

Binder | Relative Biological Activity (AML 193 proliferation)
pMON13420 polypeptide (ligand) MANCSIMIDEAIHHLKRPPAPSLDPNNLNDEDVSILMDRNLRLSNLESFVRAVKNLENASGIEAILRNLQPCLPSATAAPSRHPIIIKAGDWQEFREKLTFYLVTLEQAQEQQ | 19 EC50 (1-133)hIL-3 / EC50 mutant
pMON13421 polypeptide (ligand) MANCSIMIDEAIHHLKRPPAPSLDPNNLNDEDMSILMDRNLRLSNLESFVRAVKNLENASGIEAILRNLQPCLPSATAAPSRHPIIIKAGDWQEFREKLTFYLVTLEQAQEQQ | 0.5 EC50 (1-133)hIL-3 / EC50 mutant
pMON13432 polypeptide (ligand) MANCSIMIDEAIHHLKRPPAPSLDPNNLNDEDMSILMDRNLRLPNLESFVRAVKNLENASGIEAILRNLQPCLPSATAAPSRHPIIIKAGDWQEFREKLTFYLVTLEQAQEQQ | 10 EC50 (1-133)hIL-3 / EC50 mutant
pMON13400 polypeptide (ligand) MANCSIMPDEAIHHLKIPPNPSLDSANLNSEDVSILMERNLRTPNLLAFVRAVKHLENASGIEAILRNLQPCLPSATAAPSRHPIIIKAGDWQEFREKLTFYLVTLEQAQEQQ | 0.09 EC50 (1-133)hIL-3 / EC50 mutant
pMON13402 polypeptide (ligand) MANCSIMIDELIHHLKIPPNPSLDSANLNSEDVSILMERNLRTPNLLAFVRAVKHLENASGIEAILRNLQPCLPSATAAPSRHPIIIKAGDWQEFREKLTFYLVTLEQAQEQQ | 20 EC50 (1-133)hIL-3 / EC50 mutant
pMON13403 polypeptide (ligand) MANCSIMIDEIIHHLKRPPNPLLDPNNLNSEDMDILMDSNLRTPNLLAFPHASKQLENASGIEAILRNLQPCLPSATAAPSRHPIIIKAGDWQEFREKLTFYLVTLEQAQEQQ | 0.03 EC50 (1-133)hIL-3 / EC50 mutant
pMON13405 polypeptide (ligand) MANCSIAIDEIIHHLKRPPNPLLDPNNLNSEDVDILMERNLRTPNLLAFVRAVKHLENASGIEAILRNLQPCLPSATAAPSRHPIIIKAGDWQEFREKLTFYLVTLEQAQEQQ | 9 EC50 (1-133)hIL-3 / EC50 mutant
pMON13406 polypeptide (ligand) MANCSIAIDEIIHHLKRPPNPLLDPNNLNSEDMDILMERNLRTPNLLAFVRAVKHLENASGIEAILRNLQPCLPSATAAPSRHPIIIKAGDWQEFREKLTFYLVTLEQAQEQQ | 5 EC50 (1-133)hIL-3 / EC50 mutant
pMON13407 polypeptide (ligand) MANCSIMIDEIIHHLKRPPNPLLDPNNLNSEDVDILMERNLRTPNLLAFVRAVKHLENASGIEAILRNLQPCLPSATAAPSRHPIIIKAGDWQEFREKLTFYLVTLEQAQEQQ | 16 EC50 (1-133)hIL-3 / EC50 mutant
pMON13408 polypeptide (ligand) MANCSIMIDEIIHHLKRPPNPLLDPNNLNSEDMDILIERNLRTPNLLAFVRAVKHLENASGIEAILRNLQPCLPSATAAPSRHPIIIKAGDWQEFREKLTFYLVTLEQAQEQQ | 7 EC50 (1-133)hIL-3 / EC50 mutant
pMON13409 polypeptide (ligand) MANCSIMIDEIIHHLKRPPNPLLDPNNLNSEDMDILLERNLRTPNLLAFVRAVKHLENASGIEAILRNLQPCLPSATAAPSRHPIIIKAGDWQEFREKLTFYLVTLEQAQEQQ | 15 EC50 (1-133)hIL-3 / EC50 mutant
pMON13410 polypeptide (ligand) MANCSIMIDEIIHHLKRPPNPLLDPNNLNSEDMDILDERNLRTPNLLAFVRAVKHLENASGIEAILRNLQPCLPSATAAPSRHPIIIKAGDWQEFREKLTFYLVTLEQAQEQQ | 0.4 EC50 (1-133)hIL-3 / EC50 mutant
pMON13411 polypeptide (ligand) MANCSIMIDEIIHHLKRPPNPLLDPNNLNSEDMDILMERNLRTPNLLAFVRAVKHLENASGIEAILRNLQPCLPSATAAPSRHPIIIKAGDWQEFRLKLQFYLSTLEQAQEQQ | 1.2 EC50 (1-133)hIL-3 / EC50 mutant
pMON13412 polypeptide (ligand) MANCSIMIDEIIHHLKRPPNPLLDPNNLNSEDMDILMERNLRTPNLLAFVRAVKHLENASGIEAILRNLQPCLPSATAAPSRHPIIIKAGDWQEFRLKLQFYLSTL | 0.5 EC50 (1-133)hIL-3 / EC50 mutant
pMON13413 polypeptide (ligand) MANCSIMIDEIIHHLKRPPNPLLDPNNLNSEDMDILMERNLRTPNLLAFVRAVKHLENASGIEAILRNLQPCLPSATAAPSRHPIIIKAGDWQEFRLKLQFYLSSLEQAQEQQ | 0.6 EC50 (1-133)hIL-3 / EC50 mutant
pMON13414 polypeptide (ligand) MANCSIIIDEIIHHLKRPPNPLLDPNNLNSEDMDILMERNLRTPNLLAFVRAVKHLENASGIEAILRNLQPCLPSATAAPSRHPIIIKAGDWQEFREKLTFYLVTLEQAQEQQ | 4 EC50 (1-133)hIL-3 / EC50 mutant

Binder | Relative Biological Activity (AML 193 proliferation)
pMON13415 polypeptide (ligand) MANCSIIIDEIIHHLKRPPNPLLDPNNLNSEDVDILMERNLRTPNLLAFVRAVKHLENASGIEAILRNLQPCLPSATAAPSRHPIIIKAGDWQEFREKLTFYLVTLEQAQEQQ | 4 EC50 (1-133)hIL-3 / EC50 mutant
pMON13418 polypeptide (ligand) MANCSIMIDEIIHHLKRPPNPLLDPNNLNSEDMDILMERNLRTPNLLAFVRAVKHLENASGIEPILSNLQPCVPYWTAPPSRTPITIKAGDWQEFREKLTFYLVTLEQAQEQQ | 0.5 EC50 (1-133)hIL-3 / EC50 mutant
pMON13419 polypeptide (ligand) MANCSIMIDEIIHHLKRPPNPLLDPNNLNSEDMDILMDSNLLTPNLLAFPHASKQLENASGIEAILRNLQPCLPSATAAPSRHPIIIKAGDWQEFRLKLQFYLSSLEQAQEQQ | 0.015 EC50 (1-133)hIL-3 / EC50 mutant
pMON13422 polypeptide (ligand) MANCSIAIDEIIHHLKRPPNPLLDPNNLNSEDVDILIERNLRTPNLLAFVRAVKHLENASGIEAILRNLQPCLPSATAAPSRHPIIIKAGDWQEFREKLTFYLVTLEQAQEQQ | 0.4 EC50 (1-133)hIL-3 / EC50 mutant
pMON13423 polypeptide (ligand) MANCSIIIDEIIHHLKRPPNPLLDPNNLNSEDVDILIERNLRTPNLLAFVRAVKHLENASGIEAILRNLQPCLPSATAAPSRHPIIIKAGDWQEFREKLTFYLVTLEQAQEQQ | 0.4 EC50 (1-133)hIL-3 / EC50 mutant
pMON13424 polypeptide (ligand) MANCSIAIDEIIHHLKRPPNPLLDPNNLNSEDVDILLERNLRTPNLLAFVRAVKHLENASGIEAILRNLQPCLPSATAAPSRHPIIIKAGDWQEFREKLTFYLVTLEQAQEQQ | 3 EC50 (1-133)hIL-3 / EC50 mutant
pMON13425 polypeptide (ligand) MANCSIIIDEIIHHLKRPPNPLLDPNNLNSEDVDILLERNLRTPNLLAFVRAVKHLENASGIEAILRNLQPCLPSATAAPSRHPIIIKAGDWQEFREKLTFYLVTLEQAQEQQ | 6 EC50 (1-133)hIL-3 / EC50 mutant
pMON13426 polypeptide (ligand) MANCSIAIDEIIHHLKRPPNPLLDPNNLNSEDVDILDERNLRTPNLLAFVRAVKHLENASGIEAILRNLQPCLPSATAAPSRHPIIIKAGDWQEFREKLTFYLVTLEQAQEQQ | > 0.0003 EC50 (1-133)hIL-3 / EC50 mutant
pMON13429 polypeptide (ligand) MANCSIIIDEIIHHLKRPPNPLLDPNNLNSEDVDILDERNLRTPNLLAFVRAVKHLENASGIEAILRNLQPCLPSATAAPSRHPIIIKAGDWQEFREKLTFYLVTLEQAQEQQ | > 0.0002 EC50 (1-133)hIL-3 / EC50 mutant
pMON13440 polypeptide (ligand) MANCSIMIDEAIHHLKIPPNPSLDSANLNSEDVSILMERNLRTPNLLAFVRAVKHLENASGIEPILRNLQPCLPSATAAPSRTPIIIKAGDWQEFREKLTFYLVTLEQAQEQQ | 9 EC50 (1-133)hIL-3 / EC50 mutant
pMON13451 polypeptide (ligand) MANCSIILDEAIHHLKIPPNPSLDSANLNSEDVSILMERNLRTPNLLAFVRAVKHLENASGIEPILRNLQPCLPSATAAPSRTPIIIKAGDWQEFREKLTFYLVTLEQAQEQQ | 0.1 EC50 (1-133)hIL-3 / EC50 mutant
pMON13459 polypeptide (ligand) MANCSIMIDELIHHLKIPPNPSLDSANLNSEDVSILMERNLRTPNLLAFVRAVKHLENASGIEPILSNLQPCVPYWTAPPSRTPITIKAGDWQEFRLKLQFYLSTLEQAQEQQ | 0.003 EC50 (1-133)hIL-3 / EC50 mutant
pMON13428 polypeptide (ligand) MANCSIMIDEIIHHLKRPPNPLLDPNNLNSEDMDILMERNLRTPNLLAFVRAVKHLENASGIEPILSNLQPCVPYWTAPPSRTPITIKAGDWQEFRLKLQFYLSTLEQAQEQQ | 0.008 EC50 (1-133)hIL-3 / EC50 mutant
pMON13467 polypeptide (ligand) MANCSIMIDELIHHLKIPPNPSLDSANLNSEDVSILMERNLRTPNLLAFVRAVKHLENASGIEAILRNLQPCLPSATAAPSRHPIIIKAGDWQEFRLKLQFYLSSLEQAQEQQ | 0.16 EC50 (1-133)hIL-3 / EC50 mutant
pMON13446 polypeptide (ligand) MAYPETDYKDDDDKNCSIMIDEIIHHLKRPPAPLLDPNNLNAEDVDILMERNLRLPNLESFVRAVKNLENASGIEAILRNLQPCLPSATAAPSRHPIIIKAGDWQEFREKLTFYLVTLEQAQEQQ | 21.5 EC50 (1-133)hIL-3 / EC50 mutant
pMON13390 polypeptide (ligand) MAYPETDYKDDDDKNCSIMIDEIIHHLKRPPNPLLDPNNLNSEDMDILMERNLRTPNLLAFVRAVKHLENASGIEAILRNLQPCLPSATAAPSRHPIIIKAGDWQEFREKLTFYLVTLEQAQEQQ | 20 EC50 (1-133)hIL-3 / EC50 mutant
